# In patent publication US20250186541A1, “DLL3 TARGETING PEPTIDES AND CONSTRUCTS THEREOF” (MARIANA ONCOLOGY INC., priority 2023, published 2025):
# Numbered stars: 1 amine (or outer) side, 2 acyl side, 3 side chain; on linkers, the order of the positions; unused ones are H or OH. Bridge positions count the residues as written; N and C are the ends. Square brackets hold non-standard residues; d marks the D form. * marks the point of attachment. 5,5‑diMe‑P = 5,5-dimethyl-L-proline, CC1(C)CC[C@@H](C(=O)[*:2])N1[*:1]; DOTA = O=C(O)CN1CCN(CC(=O)O)CCN(CC(=O)*)CCN(CC(=O)O)CC1; Pro(4,4-F2) = O=C(O)[C@@H]1CC(F)(F)CN1; 1Nal = N[C@@H](Cc1cccc2ccccc12)C(=O)O; 2Nal = N[C@@H](Cc1ccc2ccccc2c1)C(=O)O; cisHyp = O=C(O)[C@@H]1C[C@H](O)CN1; hPhe = N[C@@H](CCc1ccccc1)C(=O)O; αMeP = C[C@@]1(C(=O)O)CCCN1; NMeA = CN[C@@H](C)C(=O)O; dNMeA = CN[C@H](C)C(=O)O; Aze = O=C(O)[C@@H]1CCN1; Ahx = NCCCCCC(=O)O
# T1: Biotinylated human DLL3 (human, UniProt Q9NYJ7 27-492, biotinylated (site not stated))
# T1 construct: also called Delta-like ligand 3; Delta Like Canonical Notch Ligand 3
# T1 sequence (looked up): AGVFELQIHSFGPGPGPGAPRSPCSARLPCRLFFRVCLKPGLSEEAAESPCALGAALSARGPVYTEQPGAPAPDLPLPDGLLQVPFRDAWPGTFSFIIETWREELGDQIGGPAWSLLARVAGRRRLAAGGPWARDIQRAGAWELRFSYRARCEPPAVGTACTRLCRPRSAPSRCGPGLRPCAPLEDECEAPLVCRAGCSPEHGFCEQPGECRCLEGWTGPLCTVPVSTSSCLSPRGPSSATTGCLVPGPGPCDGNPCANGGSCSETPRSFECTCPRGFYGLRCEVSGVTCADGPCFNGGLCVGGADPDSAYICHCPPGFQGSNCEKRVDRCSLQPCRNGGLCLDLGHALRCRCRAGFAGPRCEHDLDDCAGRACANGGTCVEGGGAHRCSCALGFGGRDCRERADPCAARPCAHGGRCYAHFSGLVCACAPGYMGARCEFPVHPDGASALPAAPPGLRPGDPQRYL
# B1: Cpd #41 (peptide)
# peptide: {DOTA}-[Ahx]SDCWLQWNCP[hPhe]D-NH2
# modifications: disulfide 4-10
# SMILES: CC(C)C[C@@H]1NC(=O)[C@H](Cc2c[nH]c3ccccc23)NC(=O)[C@@H](NC(=O)[C@H](CC(=O)O)NC(=O)[C@H](CO)NC(=O)CCCCCNC(=O)CN2CCN(CC(=O)O)CCN(CC(=O)O)CCN(CC(=O)O)CC2)CSSC[C@@H](C(=O)N2CCC[C@H]2C(=O)N[C@@H](CCc2ccccc2)C(=O)N[C@@H](CC(=O)O)C(N)=O)NC(=O)[C@H](CC(N)=O)NC(=O)[C@H](Cc2c[nH]c3ccccc23)NC(=O)[C@H](CCC(N)=O)NC1=O
# B2: Cpd #46 (peptide)
# peptide: Ac-MSDCWLQWNC[5,5‑diMe‑P]FD[dK](DOTA)-NH2
# modifications: disulfide 4-10
# SMILES: CSCC[C@H](NC(C)=O)C(=O)N[C@@H](CO)C(=O)N[C@@H](CC(=O)O)C(=O)N[C@H]1CSSC[C@@H](C(=O)N2[C@H](C(=O)N[C@@H](Cc3ccccc3)C(=O)N[C@@H](CC(=O)O)C(=O)N[C@H](CCCCNC(=O)CN3CCN(CC(=O)O)CCN(CC(=O)O)CCN(CC(=O)O)CC3)C(N)=O)CCC2(C)C)NC(=O)[C@H](CC(N)=O)NC(=O)[C@H](Cc2c[nH]c3ccccc23)NC(=O)[C@H](CCC(N)=O)NC(=O)[C@H](CC(C)C)NC(=O)[C@H](Cc2c[nH]c3ccccc23)NC1=O
# B3: Cpd #49 (peptide)
# peptide: Ac-MSDCWLQWNC[NMeA]FD[dK](DOTA)-NH2
# modifications: disulfide 4-10
# SMILES: CSCC[C@H](NC(C)=O)C(=O)N[C@@H](CO)C(=O)N[C@@H](CC(=O)O)C(=O)N[C@H]1CSSC[C@@H](C(=O)N(C)[C@@H](C)C(=O)N[C@@H](Cc2ccccc2)C(=O)N[C@@H](CC(=O)O)C(=O)N[C@H](CCCCNC(=O)CN2CCN(CC(=O)O)CCN(CC(=O)O)CCN(CC(=O)O)CC2)C(N)=O)NC(=O)[C@H](CC(N)=O)NC(=O)[C@H](Cc2c[nH]c3ccccc23)NC(=O)[C@H](CCC(N)=O)NC(=O)[C@H](CC(C)C)NC(=O)[C@H](Cc2c[nH]c3ccccc23)NC1=O
# B4: Cpd #61 (peptide)
# peptide: Ac-MSDCWLQ[1Nal]NCPFD[dK](DOTA)-NH2
# modifications: disulfide 4-10
# SMILES: CSCC[C@H](NC(C)=O)C(=O)N[C@@H](CO)C(=O)N[C@@H](CC(=O)O)C(=O)N[C@H]1CSSC[C@@H](C(=O)N2CCC[C@H]2C(=O)N[C@@H](Cc2ccccc2)C(=O)N[C@@H](CC(=O)O)C(=O)N[C@H](CCCCNC(=O)CN2CCN(CC(=O)O)CCN(CC(=O)O)CCN(CC(=O)O)CC2)C(N)=O)NC(=O)[C@H](CC(N)=O)NC(=O)[C@H](Cc2cccc3ccccc23)NC(=O)[C@H](CCC(N)=O)NC(=O)[C@H](CC(C)C)NC(=O)[C@H](Cc2c[nH]c3ccccc23)NC1=O
# B5: Cpd #51 (peptide)
# peptide: Ac-MSDCWLQWNC[αMeP]FD[dK](DOTA)-NH2
# modifications: disulfide 4-10
# B6: Cpd #30 (peptide)
# peptide: Ac-MSDCWLQWNCPFD[dK](DOTA)-NH2
# modifications: disulfide 4-10
# B7: Cpd #83 (peptide)
# peptide: Ac-KSDCWLQWNCPFD[dK](DOTA)-NH2
# modifications: disulfide 4-10
# B8: Cpd #84 (peptide)
# peptide: Ac-[dK]SDCWLQWNCPFD[dK](DOTA)-NH2
# modifications: disulfide 4-10
# B9: Cpd #28 (peptide)
# peptide: Ac-MSDCWLQWNCPAD-NH2
# modifications: disulfide 4-10
# SMILES: CSCC[C@H](NC(C)=O)C(=O)N[C@@H](CO)C(=O)N[C@@H](CC(=O)O)C(=O)N[C@H]1CSSC[C@@H](C(=O)N2CCC[C@H]2C(=O)N[C@@H](C)C(=O)N[C@@H](CC(=O)O)C(N)=O)NC(=O)[C@H](CC(N)=O)NC(=O)[C@H](Cc2c[nH]c3ccccc23)NC(=O)[C@H](CCC(N)=O)NC(=O)[C@H](CC(C)C)NC(=O)[C@H](Cc2c[nH]c3ccccc23)NC1=O
# B10: Cpd #29 (peptide)
# peptide: Ac-MSDCWLQWNCPFA-NH2
# modifications: disulfide 4-10
# SMILES: CSCC[C@H](NC(C)=O)C(=O)N[C@@H](CO)C(=O)N[C@@H](CC(=O)O)C(=O)N[C@H]1CSSC[C@@H](C(=O)N2CCC[C@H]2C(=O)N[C@@H](Cc2ccccc2)C(=O)N[C@@H](C)C(N)=O)NC(=O)[C@H](CC(N)=O)NC(=O)[C@H](Cc2c[nH]c3ccccc23)NC(=O)[C@H](CCC(N)=O)NC(=O)[C@H](CC(C)C)NC(=O)[C@H](Cc2c[nH]c3ccccc23)NC1=O
# B11: Cpd #50 (peptide)
# peptide: Ac-MSDCWLQWNC[dNMeA]FD[dK](DOTA)-NH2
# modifications: disulfide 4-10
# SMILES: CSCC[C@H](NC(C)=O)C(=O)N[C@@H](CO)C(=O)N[C@@H](CC(=O)O)C(=O)N[C@H]1CSSC[C@@H](C(=O)N(C)[C@H](C)C(=O)N[C@@H](Cc2ccccc2)C(=O)N[C@@H](CC(=O)O)C(=O)N[C@H](CCCCNC(=O)CN2CCN(CC(=O)O)CCN(CC(=O)O)CCN(CC(=O)O)CC2)C(N)=O)NC(=O)[C@H](CC(N)=O)NC(=O)[C@H](Cc2c[nH]c3ccccc23)NC(=O)[C@H](CCC(N)=O)NC(=O)[C@H](CC(C)C)NC(=O)[C@H](Cc2c[nH]c3ccccc23)NC1=O
# B12: Cpd #52 (peptide)
# peptide: Ac-MSDCWLQWNC[Pro(4,4-F2)]FD[dK](DOTA)-NH2
# modifications: disulfide 4-10
# B13: Cpd #62 (peptide)
# peptide: Ac-MSDCWLQ[2Nal]NCPFD[dK](DOTA)-NH2
# modifications: disulfide 4-10
# SMILES: CSCC[C@H](NC(C)=O)C(=O)N[C@@H](CO)C(=O)N[C@@H](CC(=O)O)C(=O)N[C@H]1CSSC[C@@H](C(=O)N2CCC[C@H]2C(=O)N[C@@H](Cc2ccccc2)C(=O)N[C@@H](CC(=O)O)C(=O)N[C@H](CCCCNC(=O)CN2CCN(CC(=O)O)CCN(CC(=O)O)CCN(CC(=O)O)CC2)C(N)=O)NC(=O)[C@H](CC(N)=O)NC(=O)[C@H](Cc2ccc3ccccc3c2)NC(=O)[C@H](CCC(N)=O)NC(=O)[C@H](CC(C)C)NC(=O)[C@H](Cc2c[nH]c3ccccc23)NC1=O
# B14: Cpd #45 (peptide)
# peptide: Ac-MSDCWLQWNC[cisHyp]FD[dK](DOTA)-NH2
# modifications: disulfide 4-10
# B15: Cpd #48 (peptide)
# peptide: Ac-MSDCWLQWNC[Aze]FD[dK](DOTA)-NH2
# modifications: disulfide 4-10
# B16: Cpd #31 (peptide)
# peptide: Ac-SDCWLQWNCPFD[dK](DOTA)-NH2
# modifications: disulfide 3-9
# Molecular target: T1, Biotinylated human DLL3
# Assay: SPR, biotin-hDLL3 on SA chip
Kd [nM],binding result,Binder
83,,B1
12,,B2
19.6,,B3
2.72,,B4
2.6,,B5
8.6,,B6
32,,B7
29,,B8
,no binding,B9
,no binding,B10
4.94,,B11
17,,B12
2.5,,B13
40.6,,B14
64,,B15
25.5,,B16
